Patent US20110136811A1, “PROKINETICIN 1 RECEPTOR” (published 2011)

Target: rat PK1 receptor, endogenous in rat ileum (rat, UniProt Q8R416)
Test: cell-based or functional assay

B1: PK1 ligand preparation (recombinant human Prokineticin 1 after enterokinase removal of the N-terminal FLAG tag) (ligand)
chain: AVITGACERDVQCGAGTCCAISLWLRGLRMCTPLGREGEECHPGSHKVPFFRKRKHHTCPCLPNLLCSRFPDGRYRCSMDLKNINF
- EC50 of the early contractile response of isolated rat ileum: 87.8 nM
- EC50 of the late contractile response of isolated rat ileum: 72.4 nM
